Experimental data reported in IntAct's records for PubMed 28335037.

B1: E3 ubiquitin-protein ligase LRSAM1 (Homo sapiens), Q6UWE0 (parent)
chain: MPLFFRKRKPSEEARKRLEYQMCLAKEAGADDILDISKCELSEIPFGAFATCKVLQKKVLIVHTNHLTSLLPKSCSLLSLATIKVLDLHDNQLTALPDDLGQLTALQVLNVERNQLMQLPRSIGNLTQLQTLNVKDNKLKELPDTVGELRSLRTLNISGNEIQRLPQMLAHVRTLEMLSLDASAMVYPPREVCGAGTAAILQFLCKESGLEYYPPSQYLLPILEQDGIENSRDSPDGPTDRFSREELEWQNRFSDYEKRKEQKMLEKLEFERRLELGQREHTQLLQQSSSQKDEILQTVKEEQSRLEQGLSEHQRHLNAERQRLQEQLKQTEQNISSRIQKLLQDNQRQKKSSEILKSLENERIRMEQLMSITQEETESLRRRDVASAMQQMLTESCKNRLIQMAYESQRQNLVQQACSSMAEMDERFQQILSWQQMDQNKAISQILQESAMQKAAFEALQVKKDLMHRQIRSQIKLIETELLQLTQLELKRKSLDTESLQEMISEQRWALSSLLQQLLKEKQQREEELREILTELEAKSETRQENYWLIQYQRLLNQKPLSLKLQEEGMERQLVALLEELSAEHYLPIFAHHRLSLDLLSQMSPGDLAKVGVSEAGLQHEILRRVQELLDAARIQPELKPPMGEVVTPTAPQEPPESVRPSAPPAELEVQASECVVCLEREAQMIFLNCGHVCCCQQCCQPLRTCPLCRQDIAQRLRIYHSS

Variants of: B1
Details: with ube2b_rabit UBE2B

effect of a mutation on the interaction	Variant
disrupting interaction strength	P707L
disrupting interaction strength	C694Y
with no effect	Q573K
